Laboratory results reported in patent US20220323583A1, “Pharmaceutical Formulations of Bi-Specific Diabodies and Use of the Same” (MacroGenics, Inc., priority 2019, published 2022).

Assays:
[1] = SE-HPLC (protein aggregation: % main peak, % HMW, % LMW); format: physicochemical; details: 0.1 mg/mL solution, Stabilizer 2; T = 0 Hrs
Protocol: FLR SE-HPLC analysis was performed to measure protein purity, monomer purity and protein stability. The FLR SE-HPLC configuration included a fluorescence (FLR) detector (λX=280 nm, λE=340 nm), a mobile phase composition of 350 mM Mobile Phase (175 mMNaH2PO4, 175 mMNa2SO, pH 6.3) and a TosoBio TSK G3000SWXL size exclusion column. Samples were diluted to 0.1 mg/mL and stored at 5±3° C. for 24 to 96 hours prior to analysis. Eight μg of protein (or 100 μL is sample concentration was below 0.1 mg/mL) was injected for each 30-minute run. HMW and LMW species and monomer peaks were monitored.

[2] = pH; format: physicochemical; details: for pH: normal saline IV bag with Stabilizer 2
[3] = Capillary isoelectric focusing (cIEF), charge variants; format: physicochemical; details: for cIEF % AV (acidic variants) / cIEF % BV (basic variants) / cIEF % Main Peak: 0.1 mg/mL solution, Stabilizer 2
Protocol: cIEF analysis was performed to characterize drug product charge variants. The configuration included a iCE System with Alcott 720NV Autosampler. Samples were prepared to a final concentration of 0.1 mg/mL and centrifuged at 5±3° C. for 40 minutes prior to analysis.

[4] = tested on: MOLM13 tumors; experiment: Human T cells and Molm13 tumor cells injected subcutaneously into NSG mice; format: in vivo, NOD/SCID gamma (NSG) knockout mice
Protocol: A dose of 0.004 mg/kg and higher was active in the MOLM13 model.

[5] = tested on: U937 cells; experiment: Activity against CD123-negative targets; format: cell-based
[6] = Visual appearance; format: physicochemical; details: for Appearance / Appearance, Particulates: 1250 ng/mL dosing solution
[7] = Differential scanning calorimetry (DSC), thermal stability; format: physicochemical; details: DP buffer with or without PS80 (150 mM NaCl, 10 mM sodium phosphate, pH 6.0)
Protocol: Differential Scanning calorimetry measures the energetics of protein unfolding during a temperature ramp. Peaks represent apparent melting temperatures and the area under the peaks represent the enthalpy of the thermal transition. Data were collected for duplicate samples over 20° C. to 90° C. range using temperature ramp rate of 60° C./hour.

[8] = tested on: A498; experiment: Redirected killing of target cell line; format: cell-based; details: A498 (CD123 negative)
[9] = biological target: Cynomolgus CD3ε/δ (Macaca fascicularis, UniProt Q95LI5); experiment: Binding of DART-A to CD3 (ka, kd, KD); parameters: species or system cynomolgus monkey
[10] = tested on: Kasumi-3; experiment: Redirected killing of target cell line; format: cell-based, human
[11] = tested on: HT29; experiment: Redirected killing of target cell line; format: cell-based; details: HT29 (CD123 negative)
[12] = Post Infusion (Infusion Time = 96 Hrs)
[13] = Post Storage (Time = 72 Hrs), room temperature
[14] = 10 ng/mL dosing solution, Stabilizer 2, Post Infusion (Infusion Time = 48 Hrs)
[15] = 10 ng/mL dosing solution, Stabilizer 2, Post Storage (T = 72 Hrs), room temperature
[16] = 10 ng/mL dosing solution, Stabilizer 2, T = 0
[17] = 20 ng/mL dosing solution, Stabilizer 2, Post Infusion (Infusion Time = 96 Hrs)
[18] = 20 ng/mL dosing solution, Stabilizer 2, Post Storage (T =72 Hrs), room temperature
[19] = 20 ng/mL dosing solution, Stabilizer 2, T = 0
[20] = Stabilizer 2, Post Infusion (Infusion Time = 48 Hrs)
[21] = Stabilizer 2, Post Storage (T = 72 Hrs), room temperature

Chain of Cynomolgus CD3ε/δ (Q95LI5 22-117 limits assumed): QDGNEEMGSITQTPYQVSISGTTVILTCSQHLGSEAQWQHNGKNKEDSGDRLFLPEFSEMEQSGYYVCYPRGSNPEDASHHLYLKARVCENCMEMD
Chain of Cynomolgus CD3ε/δ (Q95LI8 22-105 partner limits assumed): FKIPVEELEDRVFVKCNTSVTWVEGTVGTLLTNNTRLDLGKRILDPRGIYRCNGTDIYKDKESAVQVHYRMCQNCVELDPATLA

B1: DART-A: sequence-optimized CD123×CD3 bispecific diabody; chains SEQ ID NO:42 and SEQ ID NO:44 covalently bonded by a disulfide bond (protein)
chain 1: QAVVTQEPSLTVSPGGTVTLTCRSSTGAVTTSNYANWVQQKPGQAPRGLIGGTNKRAPWTPARFSGSLLGGKAALTITGAQAEDEADYYCALWYSNLWVFGGGTKLTVLGGGGSGGGGEVQLVQSGAELKKPGASVKVSCKASGYTFTDYYMKWVRQAPGQGLEWIGDIIPSNGATFYNQKFKGRVTITVDKSTSTAYMELSSLRSEDTAVYYCARSHLLRASWFAYWGQGTLVTVSSGGCGGGEVAALEKEVAALEKEVAALEKEVAALEK
chain 2: DFVMTQSPDSLAVSLGERVTMSCKSSQSLLNSGNQKNYLTWYQQKPGQPPKLLIYWASTRESGVPDRFSGSGSGTDFTLTISSLQAEDVAVYYCQNDYSYPYTFGQGTKLEIKGGGSGGGGEVQLVESGGGLVQPGGSLRLSCAASGFTFSTYAMNWVRQAPGKGLEWVGRIRSKYNNYATYYADSVKDRFTISRDDSKNSLYLQMNSLKTEDTAVYYCVRHGNFGNSYVSWFAYWGQGTLVTVSSGGCGGGKVAALKEKVAALKEKVAALKEKVAALKE
modifications: interchain disulfide bond; First Polypeptide Chain of DART-A; Second Polypeptide Chain of DART-A
FLR SE-HPLC % Main Peak [1]: 98.4% | pH ([2]; 10 ng/mL dosing solution, Post Infusion (Infusion Time = 48 Hrs)): 8.1 | pH ([2]; 10 ng/mL dosing solution, Post Storage (T = 72 Hrs), room temperature): 8.1 | pH ([2]; 10 ng/mL dosing solution, T = 0): 8.1 | pH ([2]; 20 ng/mL dosing solution, Post Infusion (Infusion Time = 96 Hrs)): 7.9 | pH ([2]; 20 ng/mL dosing solution, Post Storage (T =72 Hrs), room temperature): 8.1 | pH ([2]; 20 ng/mL dosing solution, T = 0): 8.1 | pH ([2]; 1250 ng/mL dosing solution, Post Infusion (Infusion Time = 48 Hrs)): 8.0 | pH ([2]; 1250 ng/mL dosing solution, Post Storage (T = 72 Hrs), room temperature): 8.0 | pH ([2]; 1250 ng/mL dosing solution, T = 0): 8.0 | changes in pH, visual appearance and osmolality post-infusion vs T=0 ([2]; Stabilizer 2 dosing solutions): no significant changes in pH, visual appearance, and osmolality | charge heterogeneity by cIEF ([3]; 0.1 mg/mL in Stabilizer 2 dosing solution, 72-hour RT storage and administration): minor changes within the variability of the analytical method | cIEF % AV (acidic variants) [3, 12]: 31.4% | cIEF % BV (basic variants) [3, 12]: 3.4% | cIEF % Main Peak [3, 12]: 65.2% | cIEF % AV (acidic variants) [3, 13]: 29.1% | cIEF % BV (basic variants) [3, 13]: 3.9% | cIEF % Main Peak [3, 13]: 67.0% | cIEF % AV (acidic variants) ([3]; T = 0 Hrs): 28.3% | cIEF % BV (basic variants) ([3]; T = 0 Hrs): 4.4% | cIEF % Main Peak ([3]; T = 0 Hrs): 67.3% | MOLM13 tumor growth ([4]; 0.16, 0.5, 0.2, 0.1, 0.02 and 0.004 mg/kg dose levels): significantly inhibited | dose active in the MOLM13 model ([4]; mouse, in vivo): ≥ 4 µg/kg | activity against CD123-negative targets [5]: No activity | Visual Appearance [6, 14]: C, L | Visual Appearance, Particulates [6, 14]: FNP, FPP | Visual Appearance [6, 15]: C, L | Visual Appearance, Particulates [6, 15]: FNP, FPP | Visual Appearance [6, 16]: C, L | Visual Appearance, Particulates [6, 16]: FNP, FPP | Visual Appearance [6, 17]: C, L | Visual Appearance, Particulates [6, 17]: FNP, FPP | Visual Appearance [6, 18]: C, L | Visual Appearance, Particulates [6, 18]: FNP, FPP | Visual Appearance [6, 19]: C, L | Visual Appearance, Particulates [6, 19]: FNP, FPP | Appearance [6, 20]: C, L | Appearance, Particulates [6, 20]: FNP, FPP | Appearance [6, 21]: C, L | Appearance, Particulates [6, 21]: FNP, FPP | Appearance ([6]; Stabilizer 2, T = 0): C, L | Appearance, Particulates ([6]; Stabilizer 2, T = 0): FNP, FPP | Visual Appearance ([6]; 0.1 mg/mL in Stabilizer 2 dosing solution, storage and administration): No change in visual appearance | visual appearance of dosing solutions ([6]; Stabilizer 2 in saline bag, T=0, after 72 h storage and post infusion (48 or 96 hours)): clear, colorless with no visible particulates | melting temperature (Tm), DSC [7]: 64 °C | Max % Killing [8]: No activity | EC50, redirected killing ([8]; E:T = 10:1): No activity | ka (± SD) [9]: 5.5 (± 0.5) × 10^5 M^−1s^−1 | kd (± SD) [9]: 5.0 (± 0.9) × 10^−3 s^−1 | Kd ([9]; read-out: KD (± SD)): 9.2 ± 2.3 nM | Max % Killing [10]: 94% | Max % Killing [11]: No activity | EC50, redirected killing ([11]; E:T = 10:1): No activity
